According to patent US20030148973A1 (published 2003):

Molecular target: T1, HLA-A0201 molecules on the surface of T2 cells
T1 construct: whole, on cells; Empty (peptide-stripped) HLA-A0201 on T2 cells; also called HLA-A2
Assay: T2 cell HLA-A0201 stabilization; 20 µg peptide on 10^6 acid-stripped T2 cells, BB7.2 staining, flow cytometry
Protocol: Subsequent dissociation of peptides from the HLA class 1 MHC molecules results in the loss of BB7.2 monoclonal antibody binding.
In order to determine whether the identified nonapeptides can be presented by HLA-A0201, T2 cells were propagated in RPMI complete medium (RPMI medium supplemented with 10% heat-inactivated bovine serum, 120.0 units per ml of penicillin G sodium, 120 μg per ml of streptomycin sulphate, and 0.35 mg per ml of L-glutamine). The ability of MAGE-A1 derived peptides to bind and stabilize surface HLA-A0201 molecules on T2 cells was determined utilizing a standard protocol (Deng, Y. (1997) J Immunol 158:1507-1515). The required number of T2 flasks were incubated overnight at 26° C. serum-free culture medium (RPMI medium supplemented with 120.0 units per ml of penicillin G sodium and 0.35 mg per ml of L-glutamine). The next day, cells were washed with RPMI medium (without bovine serum) and then resuspended in denaturing solution (300 mM Glycine in 1% BSA, pH 2.5) for 3 min, in order to strip the existing HLA A2 molecules of endogenous peptide. The stripped T2 cells were washed at once in an excess of RPMI media (without bovine serum) to neutralize the acidic stripping solution. To load the peptide of interest into the HLA-A2 peptide binding groove, 20 μg of specific peptide was pulsed onto 10⁶ denatured T2 cells in 2 ml peptide loading media (RPMI medium supplemented with 120.0 units per ml of penicillin G sodium; 0.35 mg per ml of L-glutamine; 1× sodium pyruvate; 1× non-essential amino acids; 1×2-mercapto-ethanol) for 4 hours at 26° C. The cells were washed in cold 1% BSA in PBS and resuspended in 100 μl of cold 1% BSA in PBS to prevent MHC protein turn over. […] The binding of BB7.2 was detected via the addition of 1.0 μg per test of goat anti-mouse IgG-Fc fluorescein (FITC) conjugate (BETHYL Laboratories Inc). […] The samples were then analyzed by Flow Cytometry, and the results were expressed in units of Fluorescence Index (FI), calculated by the equation: […]

Binder | Fluorescence Index (FI)
KVLEYVIKV (also called Peptide # 1) [MAGE-A1 278] | 2.18 FI
LQLVFGIDV (also called Peptide # 3) [MAGE-A1 151] | 0.52 FI
SAYGEPRKL (also called Peptide # 14) [MAGE-A1 230] | 1.61 FI
